These are literature values, as cited in article PMC9214263.

In general, Kd refers to the constant that tells how readily two partners part at equilibrium.

For this series, the target named is TNFα (Homo sapiens) (UniProt P01375). As to the kind of experiment: KinExA. On the technique in general: In KinExA the mixture passes briefly over coated beads that capture the unbound partner.
Chain of TNFα (Homo sapiens) (P01375 77-233): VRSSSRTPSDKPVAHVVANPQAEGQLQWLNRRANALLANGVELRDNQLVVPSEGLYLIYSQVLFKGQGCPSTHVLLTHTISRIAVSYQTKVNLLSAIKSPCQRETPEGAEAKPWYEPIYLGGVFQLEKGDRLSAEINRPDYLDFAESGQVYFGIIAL

With infliximab, the Kd was 4.2 pM.
